Here are results for one molecule from paper PMC4896748, “Ensemble cryo-EM uncovers inchworm-like translocation of a viral IRES through the ribosome” (eLife, 2016).

This experiment has as its target T1, S. cerevisiae elongation factor eEF2 (C-terminally His6-tagged), bound with GDP and sordarin (S. cerevisiae, UniProt P32324 1-842, diphthamide at 699).
T1 construct: elongation factor 2 (eEF2), S. cerevisiae; residue numbers as in S. cerevisiae eEF2 (H108, H583, H694, Diph699); Complex assembled with eEF2•GTP and sordarin; also called eukaryotic elongation factor 2; translocase; source: yeast TKY675 cells, purified (Ni-NTA, SP Sepharose cation exchange, Superdex 200)
Briefly: cryo-EM structure; 80S•TSV IRES•eEF2•GDP•sordarin complex, five structures (I-V) from one specimen; assembled from 40S (0.8 uM), 60S (0.8 uM), TSV IRES RNA (8 uM), eEF2 (5 uM), sordarin (800 uM), GTP (1 mM); 30°C; 45 mM HEPES·KOH pH 7.5, 10 mM MgCl2, 100 mM KCl, 2.5 mM spermine, 2 mM β-mercaptoethanol. The following applies: both partners purified.

T1 sequence (P32324 whole entry): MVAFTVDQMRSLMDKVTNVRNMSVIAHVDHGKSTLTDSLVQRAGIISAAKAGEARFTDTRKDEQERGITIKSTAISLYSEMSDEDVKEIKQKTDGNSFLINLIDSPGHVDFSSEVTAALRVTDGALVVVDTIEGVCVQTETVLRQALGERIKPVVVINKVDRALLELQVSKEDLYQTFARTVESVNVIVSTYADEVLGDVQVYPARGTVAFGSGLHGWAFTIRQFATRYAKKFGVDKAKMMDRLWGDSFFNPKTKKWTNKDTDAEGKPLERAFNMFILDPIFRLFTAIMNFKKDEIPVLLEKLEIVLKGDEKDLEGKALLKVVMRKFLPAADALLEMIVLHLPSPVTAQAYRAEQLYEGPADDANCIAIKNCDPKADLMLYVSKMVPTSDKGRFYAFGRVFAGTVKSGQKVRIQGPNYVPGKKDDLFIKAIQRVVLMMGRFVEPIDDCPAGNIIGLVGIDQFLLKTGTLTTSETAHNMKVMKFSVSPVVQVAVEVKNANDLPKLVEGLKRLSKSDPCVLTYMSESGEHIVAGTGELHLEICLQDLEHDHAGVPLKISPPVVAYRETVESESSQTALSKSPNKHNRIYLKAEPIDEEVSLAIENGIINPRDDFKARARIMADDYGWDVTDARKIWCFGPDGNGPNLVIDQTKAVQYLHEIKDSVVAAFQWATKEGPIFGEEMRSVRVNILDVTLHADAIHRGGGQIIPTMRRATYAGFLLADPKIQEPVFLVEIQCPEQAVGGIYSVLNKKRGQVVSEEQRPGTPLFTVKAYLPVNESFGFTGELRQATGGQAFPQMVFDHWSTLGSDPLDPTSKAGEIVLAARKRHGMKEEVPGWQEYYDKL

B1: ribosomal protein P0 of the S. cerevisiae 60S subunit (P stalk) (natural protein, UniProt P05317 1-312, looked up)
chain: MGGIREKKAEYFAKLREYLEEYKSLFVVGVDNVSSQQMHEVRKELRGRAVVLMGKNTMVRRAIRGFLSDLPDFEKLLPFVKGNVGFVFTNEPLTEIKNVIVSNRVAAPARAGAVAPEDIWVRAVNTGMEPGKTSFFQALGVPTKIARGTIEIVSDVKVVDAGNKVGQSEASLLNLLNISPFTFGLTVVQVYDNGQVFPSSILDITDEELVSHFVSAVSTIASISLAIGYPTLPSVGHTLINNYKDLLAVAIAASYHYPEIEDLVDRIENPEKYAAAAPAATSAASGDAAPAEEAAAEEEEESDDDMGFGLFD
notes: 60S acidic ribosomal protein P0 (uL10), S. cerevisiae; part of the P stalk of the 60S subunit; Stood in the assay as a subunit of the 60S ribosomal subunit within the 80S ribosome, not as an isolated protein; also called eukaryote-specific protein P0; source: endogenous, in 60S subunits from 80S ribosomes purified from S. cerevisiae strain W303
With B1, the binding result is listed as “binds”.
